We go through 16 molecules from patent US20260258115A1 (MAPP BIOPHARMACEUTICAL, published 2026).

Assay [1] addresses RSV F on RSV-A2 virus (Respiratory Syncytial Virus (RSV-A2), UniProt P03420 26-574). In words: cell-based or functional assay.
In assay [2] the target is RSV postfusion F (postF), F ΔFP (Respiratory Syncytial Virus, UniProt P03420 26-513). In words: BLI, IgG on anti-human IgG sensor. For orientation: BLI is a label-free optical method that tracks binding on a fibre tip over time.
Assay [3] concerns the target RSV prefusion F (preF), DS-Cav1 (Respiratory Syncytial Virus, UniProt P03420 26-513). The experiment in a line: BLI, IgG on anti-human IgG sensor, 100 nM antigen, 1:1 fit.
The target of assay [4] is RSV postfusion F (postF), F ΔFP trimer, subtype A (Respiratory Syncytial Virus, subtype A, UniProt P03420 26-513). The experiment in a line: BLI, IgG (Table 9A).
For assay [5], the target named is RSV F on RSV subtype A virus (RSV-A2) (Respiratory Syncytial Virus, subtype A, …, UniProt P03420 26-574). In words: cell-based or functional assay.
In assay [6] the target is RSV prefusion F (preF), DS-Cav1 stabilized trimer, subtype A (Respiratory Syncytial Virus, subtype A, UniProt P03420 26-513). The experiment in a line: BLI, apparent IgG KD (Table 9A).

B1: ADI-41521 (antibody, V domains shown)
VH: EVQLVESGGGLVQPGRSLRLSCAASGFTFDDFAMDWVRQVPGKGLEWVSGISWNGVSKDYAGSVKGRFTISRDNAKNSLYLQMNSLRAEDTALYFCAKARRDVYNWGDAFDIWGQGTMVTVSS
VL: DIRLTQSPGTLSLSPGERATLSCRASQPLNSNYLAWYRQKPGQAPRLLIFDASSRATGVPDRISGSGSGTDFTLTVSRLEPEDIAVYYCQQYASSPWTFGLGTKVEIK
Turning to B1, the “Neutralization IC50 (RSV subtype A)” value in assay [1] is more than 25 µg/mL. Further, the binding result in assay [2] is on record as “no binding”. In assay [3], the Kd turned out to be 1.68 nM.

B2: ADI-41491 (antibody, V domains shown)
VH: EVQLLESGGGLVQPGGSLRLSCAASGFTFSSYSMNWVRQAPGKGLEWVSYMSSDRSAIYYSDSVKDRFTISRDNAKNSLYLQMHSLRAEDTAVYYCARRYCSSTSCYRGLGYYYGMDVWGQGTTVTVSS
VL: SYELTQPPSVSVAPGQTARITCGGSNIGNKDVHWYQQKPGQAPVLVVYDDSDRPSGIPERFAGSNSGNTATLTISRVEAGDEADYYCQVWHSAGDHVVFGGGTKLTVL
For the molecule B2, the “Neutralization IC50 (RSV subtype A)” value in assay [1] is more than 25 µg/mL. The binding result in assay [2] is reported as “no binding”. The Kd in assay [3] amounted to 0.439 nM.

B3: ADI-41208 (antibody, V domains shown)
VH: QVQLVESGGDLVKPGGSLRLSCAASGFTLSGHYMSWIRQPPGKGLEWVSSISGGSTYTNYADSVKGRFTISRDNAENSLYLQMNSLRAEDTAVYYCARLAYSDYGPFYFDLWGRGTLVTVSS
VL: QSVLTQPPSVSGAPGQRVTISCTGSSSNIGAGYDVHWYQQLTGTAPKLLIFDNNNRPSGVPDRFSGSKSGTSASLAITGLQAEDEADYYCQSYDSRLSAPYVFGTGTKLTVL
For the molecule B3, the binding result in assay [4] is “no binding”. Further, in assay [5], the “Neutralization - RSV A2 IC50 (pM)” value worked out at 310 pM and the “neut IC50 (ug/ml) subtype A (wright)” value is 0.077 µg/mL. Also, in assay [6], the Kd worked out at 0.48 nM.

B4: ADI-41476 (antibody, V domains shown)
VH: EVQLLESGGGLVQPGGSLRLSCATSGFRFTRYWMHWVRQAPGKGLEWVARINFDGTTTNYADSVKGRFTVSRDNAKNTLYLQINSLRAEDTAVYFCARDQTFLEWLPFESWGQGTLVTVSS
VL: QTVVTQEPSFSVSPGGTVTLTCGLTSGSVSTSYYPSWYQQTPGQAPRTLIYNTKTRFSGVPDRFSGSILGNKAALTITGAQADDESDYYCVLYMSGGMVFGGGTKLTVL
B4: the “Neutralization IC50 (RSV subtype A)” value in assay [1] was more than 25 µg/mL. In assay [2], the binding result is listed as “no binding”. This molecule came in with a Kd in assay [3] of 3.86 nM.

B5: ADI-41259 (antibody, V domains shown)
VH: QVQLVESGGRLVKPGGSLRLSCAASGFTFSDFYMSWIRQAPGKGLEWVSYISSSGDDPNYADSVKGRFTISRDNSKNSLYLQMNSLRAEDTAVYYCARDEVGWNNLDYYFGMDVWGQGTTVTVSS
VL: DIVMTQSPLSLPVTLGQPASISCRSSQSLVHSDGNTYLSWFHQRPGQSPRRLIYKVSNRDSGVPNRFSGGGSGTDFTLKISRVEAEDVGFFYCMQGTHWQKTFGQGTKVEIK
Regarding B5, the binding result in assay [4] was “no binding”. Moreover, in assay [5], the “Neutralization - RSV A2 IC50 (pM)” value came out at 122 pM and the “neut IC50 (ug/ml) subtype A (wright)” value amounted to 0.015 µg/mL. The Kd in assay [6] is 0.34 nM.

B6: ADI-41302 (antibody, V domains shown)
VH: QVQLVESGGGVVQPGRSLRLSCAASGFTFSSYAMQWVRQAPGKGLEWVAVMTNDGDDKYYADSVRGRFTISRDNSKNTLYLQMNNLRPEDTAVYYCARDLFEWWELLGYCYAMDVWGQGTTVTVSS
VL: QSVLTQPPSASGSPGQSVTISCTGTSSDVGAYNYVSWYQQHPGKAPKLIIYEVYKRPSGVPDRFFGSKSGNTASLTVSGLQAEDEADYYCSSYAGSNTLGVFGGGTKVTVL
Consider B6, for which the binding result in assay [4] is “no binding”. Also, in assay [5], the “Neutralization - RSV A2 IC50 (pM)” value worked out at 133 pM and the “neut IC50 (ug/ml) subtype A (wright)” value came out at 0.006 µg/mL. Also, the Kd in assay [6] stood at 0.65 nM.

B7: ADI-41489 (antibody, V domains shown)
VH: EVQLVESGGGVVQPGRSLRLSCAASGFNFHNYAFHWVRQAPGKGLDWVAVTSYDGSSAFYADSVKGRFTISRDNSKKILYLQMTSLRAEDTALYYCARGSSSWSGDYFDYWGQGILVTVSS
VL: DIVMTQSPVTLSVSPGERATLSCRASQSVGSNLAWYQQKHGQTPRLLIYDASTRATSIPARFSGSGSGTEFTLTISSLQSEDFAVYYCQQYNKWPSYTFGQGTKVEIK
notes: also called Ab 770; Antibody Number 770
With B7, in assay [1], the “Neutralization IC50 (RSV subtype A)” value was more than 25 µg/mL. For the same molecule, in assay [2], the binding result is listed as “no binding”. For the same molecule, the Kd in assay [3] was determined as 88 nM.

B8: ADI-41523 (antibody, V domains shown)
VH: QVQLVQSGAEVKKPGESLRISCKGSGDTFSNYWIGWVRQMPGKGLEWMGIIYPGDSDTRYSPSFQGQVTFSADKSISTAYLQWSSLKASDTAMYYCVRQVGGVVVTDTDNYYYGMDVWGQGTTVTVSS
VL: DIRLTQSPSSLSASVGDRVTITCRASQSIRSYLNWYQQKPGKAPKLLIYSASSLQSGVPSRFSGSGSGTDFTLTISSLQPEDFATYYCQQSHSTPLTFGPGTKVDIK
Take B8: the “Neutralization IC50 (RSV subtype A)” value in assay [1] is more than 25 µg/mL. In assay [2], the binding result is recorded as “no binding”. This molecule also had a Kd in assay [3] of 2.91 nM.

B9: ADI-41457 (antibody, V domains shown)
VH: EVQLVESGGGLVRPGGSLRVSCAASGFTFIRYDMHWVRQAPGKGLEWVSGIGTAGDTYYAASVQGRFTISRENAKNSLYLQMSNLRPGDTAVYYCAGSMAATGIDQWGQGTLVTVSS
VL: EIVMTQSPLTLPVTPGEPASISCRSSQSLLHSNGFTYLDWFLQKPGQSPQLLIFLGSNRASGVPDRFSGSGSGTDFTLKISRVEAEDVGIYYCMQALQTPYTFGQGTKVEIK
notes: also called Ab 741; Antibody Number 741
As for B9, in assay [1], the “Neutralization IC50 (RSV subtype A)” value is more than 25 µg/mL. For the same molecule, the binding result in assay [2] is “no binding”. In assay [3], this molecule yielded a Kd of 3.33 nM.

B10: ADI-41517 (antibody, V domains shown)
VH: QVQLVQSGGGLVQPGGSLRLACAASGFTLSGYAMNWVRQAPGKGLEWVSSISGSGGSTYYADSVKGRFTTSRDNSKNTVFLHMNSLRAEDTAIYYCATVPWETGPFDHWGQGTLVTVSS
VL: QSVLTQPPSVSGAPGQRVTISCTGSSSNIGAGYAVHWYQQLPGTAPKLLIHGTTNRPSGVPDRFSGSKSGTSASLAITGLQAEDEADYYCQSYDSRLSGYVFGTGTKLTVL
As to B10, in assay [1], the “Neutralization IC50 (RSV subtype A)” value stood at 0.02 µg/mL. Moreover, the binding result in assay [2] is reported as “no binding”. This molecule also came in with a Kd in assay [3] of 0.501 nM.

B11: ADI-41524 (antibody, V domains shown)
VH: EVQLVESGGGLVQPGRSLRLSCTGSGFTFGDYAISWFRQAPGKGLEWVGFIRSKPYGGTTEYAASVKGTFTISRDDSKSIAYLQMNSLKTGDTAVYFCTRGIWGITMIVPWSDPWGQGTLVTVSS
VL: DIVMTQTPLSLPVTPGEPASISCRSSQSLLHSNGFNYLAWYLQKPGQSPQLLIYLNSNRASGVPDRFSGSGSGTDFTLKISRVEAEDVGVYYCMQALQTPLTFGPGTKLEIK
On to B11, for which the “Neutralization IC50 (RSV subtype A)” value in assay [1] is more than 25 µg/mL. The binding result in assay [2] is “no binding”. The molecule also came in with a Kd in assay [3] of 3.18 nM.

B12: ADI-41274 (antibody, V domains shown)
VH: EVQLVESGGGLVKPGGSLRLSCAASGFSFSSYAMNWVRQAPGKGLQWVSSISAGSSYIDYADSVKGRFTISRDNAENSLFLQMNSLRVEDTAVYYCARVGSYTHGYEFDYWGQGTLVTVSS
VL: QPVLTQPPSVSGAPGQRVTISCTGSNSNIGAGYDVHWYQQLPGTAPKLLIYASTIRPSGVPDRFSGSKSGTSASLAITGLQAEDEADYYCQSYDRNLSVVFGGGTKVTVL
notes: also called Ab 592; Antibody Number 592
Consider B12, for which the binding result in assay [4] is given as “no binding”. Also, in assay [5], the “Neutralization - RSV A2 IC50 (pM)” value worked out at 26.6 pM and the “neut IC50 (ug/ml) subtype A (wright)” value stood at 0.109 µg/mL. Besides, the Kd in assay [6] was 0.48 nM.

B13: ADI-43644 (antibody, V domains shown)
VH: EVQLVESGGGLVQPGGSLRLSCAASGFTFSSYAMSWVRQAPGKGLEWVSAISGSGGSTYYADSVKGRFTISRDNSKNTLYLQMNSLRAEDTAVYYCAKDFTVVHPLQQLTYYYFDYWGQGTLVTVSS
VL: DIVLTQSPATLSLSPGERATLSCRASQSVSSYLAWYQQKPGQAPRLLIYDASNRATGIPARFSGSGSGTDFTLTISSLEPEDFAVYYCQQRSNWPPGFTFGGGTKVEIK
On to B13, for which the “Neutralization IC50 (RSV subtype A)” value in assay [1] is more than 25 µg/mL. Also, in assay [2], the binding result is listed as “no binding”. This molecule registered a Kd in assay [3] of 29.3 nM.

B14: ADI-41501 (antibody, V domains shown)
VH: QVQLVQSGAEVKKPGSSVKVSCKASGGIFSDFAISWVRQAPGQGLEWMGGIITIIGTPEYAQKFQGRVRITADESTTTVFMELSRLTSEDTAVYYCARDSRYGSGWYWDHWGQGTLVTVSS
VL: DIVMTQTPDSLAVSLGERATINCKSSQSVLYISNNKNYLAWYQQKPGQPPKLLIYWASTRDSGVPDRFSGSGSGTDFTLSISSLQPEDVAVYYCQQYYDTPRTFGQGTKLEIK
notes: also called Ab 780; Antibody Number 780
On to B14, for which the “Neutralization IC50 (RSV subtype A)” value in assay [1] is more than 25 µg/mL. For the same molecule, in assay [2], the binding result is reported as “no binding”. Moreover, the Kd in assay [3] turned out to be 3.21 nM.

B15: ADI-41516 (antibody, V domains shown)
VH: EVQLLESGPRLVKPSETLSLTCIVSGGFISYDYWSWIRQPAGKGLEWIGRIYAGGIPKYNPSLKSRVTMSLDMSNNQFSLRLKSVTAADSAVYYCARAEPCSGDCFLGENPFDSWGQGTLVTVSS
VL: QSVLTQPPSASGTPGQRVTISCSGSSSSIGSNYVYWYQQLPGTAPKLLIHKDNERPSGVPDRFSGSKSGTSASLAISGLRSEDEGDYSCAAWDDSLSGWVFGGGTKLTVL
Take B15: the “Neutralization IC50 (RSV subtype A)” value in assay [1] was determined as 0.08 µg/mL. Also, the binding result in assay [2] is given as “no binding”. In addition, in assay [3], the Kd came to 0.414 nM.

B16: ADI-41256 (antibody, V domains shown)
VH: QVQLVQSGAEVKSPGSSATVSCKASGGTFGSYGISWVRQAPGQGLEWIGAIMPMFGTTNYAQKFQGRVTMTADESTSTVYMDVSSLRPDDTAVYYCVRDVFYDILTGYYDADYYHHYMDVWGKGTTVTVSS
VL: DIVMTQSPLSLPVTLGQPASISCRSGQSLVHSDGNTYLNWFQQRPGQSPRRLIYKVSNRGSGVPDRFSGSGSGTDFTLKISRVEAEDVGVYFCMQGTHWPRTFGQGTKVDIK
notes: also called Ab 578; Antibody Number 578
Turning to B16, in assay [4], the binding result is listed as “no binding”. Further, in assay [5], the “Neutralization - RSV A2 IC50 (pM)” value stood at 85.8 pM and the “neut IC50 (ug/ml) subtype A (wright)” value is 0.019 µg/mL. Also, the Kd in assay [6] amounted to 0.35 nM.
